Target: fos_mouse Fos (UniProt P01101)
Sequence (P01101 whole entry): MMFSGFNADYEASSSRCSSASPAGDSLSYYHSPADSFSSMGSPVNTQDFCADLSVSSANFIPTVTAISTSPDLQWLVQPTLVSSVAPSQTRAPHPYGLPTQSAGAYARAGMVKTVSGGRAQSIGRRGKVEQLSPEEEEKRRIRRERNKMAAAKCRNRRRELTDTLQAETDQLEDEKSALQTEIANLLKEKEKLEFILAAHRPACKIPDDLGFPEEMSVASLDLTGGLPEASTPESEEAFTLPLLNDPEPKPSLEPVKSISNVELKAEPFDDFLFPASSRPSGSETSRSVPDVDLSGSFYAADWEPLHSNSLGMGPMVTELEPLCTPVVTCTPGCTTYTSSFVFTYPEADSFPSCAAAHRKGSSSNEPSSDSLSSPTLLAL

Chain of Transcription factor MafB (Mus musculus), P54841 E269R (P54841 whole entry E269R): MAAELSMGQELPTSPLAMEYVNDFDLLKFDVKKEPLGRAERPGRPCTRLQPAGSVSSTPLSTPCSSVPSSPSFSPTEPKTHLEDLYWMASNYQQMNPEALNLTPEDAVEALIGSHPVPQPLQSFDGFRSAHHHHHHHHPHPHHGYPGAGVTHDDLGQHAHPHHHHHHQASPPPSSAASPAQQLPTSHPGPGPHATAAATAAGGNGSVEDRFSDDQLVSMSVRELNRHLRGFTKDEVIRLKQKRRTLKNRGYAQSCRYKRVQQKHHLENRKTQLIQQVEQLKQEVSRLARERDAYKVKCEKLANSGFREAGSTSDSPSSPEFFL
Chain of Transcription factor MafB (Mus musculus), P54841 V277N (P54841 whole entry V277N): as the sequence (P54841 whole entry E269R) above, with R269E, V277N counted along it

| Substance | effect of a mutation on the interaction |
| --- | --- |
| Transcription factor MafB (Mus musculus), P54841 V277N | disrupting interaction strength |
| Transcription factor MafB (Mus musculus), P54841 E269R | increasing interaction strength |
